These results are taken from patent US20150191709, “MODIFIED HELICASES” (OXFORD NANOPORE TECHNOLOGIES LIMITED, published 2015).

Data set [1] concerns the target Heat treated Hel308 Mbu-E284Faz E284Faz (Methanococcoides burtonii) (UniProt Q12WZ6). The note with it: four nitroindoles between SEQ 155 and SEQ 154; nanopore; 500 nM, 960 mM KCl, 10 mM MgCl2, 1 mM ATP.
In data set [2] the target is Hel308 Mbu-E284Faz E284Faz (Methanococcoides burtonii) (UniProt Q12WZ6). The note with it: four nitroindoles between SEQ 155 and SEQ 154; nanopore; 100 nM, 960 mM KCl, 10 mM MgCl2, 1 mM ATP.
Data set [3] concerns the target T1, Hel308 Mbu(E284C/S615C)-bismaleimidePEG3 (Methanococcoides burtonii, UniProt Q12WZ6 SEQ:1-760, E284C/S615C).
T1 sequence: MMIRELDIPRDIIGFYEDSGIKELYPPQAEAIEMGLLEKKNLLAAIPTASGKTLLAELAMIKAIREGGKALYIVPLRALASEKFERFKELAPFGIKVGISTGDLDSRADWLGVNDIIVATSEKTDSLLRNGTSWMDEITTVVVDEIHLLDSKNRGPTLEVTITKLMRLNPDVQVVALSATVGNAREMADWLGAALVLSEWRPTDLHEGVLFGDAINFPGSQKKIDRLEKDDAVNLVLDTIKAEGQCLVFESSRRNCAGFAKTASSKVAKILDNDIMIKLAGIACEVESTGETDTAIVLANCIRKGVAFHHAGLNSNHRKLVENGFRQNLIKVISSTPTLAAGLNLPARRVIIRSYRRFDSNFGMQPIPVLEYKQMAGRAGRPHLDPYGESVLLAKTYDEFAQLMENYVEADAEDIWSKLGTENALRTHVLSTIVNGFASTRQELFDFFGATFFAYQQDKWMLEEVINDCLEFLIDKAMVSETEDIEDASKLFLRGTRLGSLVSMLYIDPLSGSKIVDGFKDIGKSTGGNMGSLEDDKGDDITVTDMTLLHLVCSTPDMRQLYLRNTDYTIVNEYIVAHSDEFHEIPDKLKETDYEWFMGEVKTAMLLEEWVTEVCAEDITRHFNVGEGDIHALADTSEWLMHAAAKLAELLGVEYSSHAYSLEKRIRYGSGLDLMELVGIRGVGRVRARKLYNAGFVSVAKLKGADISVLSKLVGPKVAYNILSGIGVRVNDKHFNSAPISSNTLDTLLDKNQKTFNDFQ
As to the kind of experiment: fluorescence unwinding; increased processivity; 400 mM NaCl, 1 mM ATP, 10 mM MgCl2. As to conditions: tags: C284 and C615 crosslinked by bismaleimidePEG3 (closed); 3' ssDNA overhang, 80 and 33 bp duplex sections. The source says: (§1) The fluorescent probe is designed in such a way that its 5′ and 3′ ends are self-complementary and thus form a kinetically-stable hairpin once displaced, preventing the probe from re-annealing to the template strand (FIG. 3 section D). Upon formation of the hairpin product, the FAM is brought into the vicinity of the BHQ-1 and its fluorescence is quenched. A processive enzyme, capable of displacing the 80 mer “blocker” (SEQ ID NO: 111) and fluorescent (SEQ ID NO: 112, labelled with a carboxyfluorescein (FAM) at its 5′ end a black-hole quencher (BHQ-1) at its 3′ end) strands will therefore lead to a decrease in fluorescence over time. However, if the enzyme has a processivity of less than 80 nt it would be unable to displace the fluorescent strand (SEQ ID NO: 112, labelled with a carboxyfluorescein (FAM) at its 5′ end a black-hole quencher (BHQ-1) at its 3′ end) and, therefore, the “blocker” strand (SEQ ID NO: 111) would reanneal to the major bottom strand (FIG. 3 section E, SEQ ID NO: 110).

For data set [4], the target named is T2, Hel308 Mbu(E284C/S615C)-bismaleimidePEG11 (Methanococcoides burtonii, UniProt Q12WZ6 SEQ:1-760, E284C/S615C).
T2 sequence: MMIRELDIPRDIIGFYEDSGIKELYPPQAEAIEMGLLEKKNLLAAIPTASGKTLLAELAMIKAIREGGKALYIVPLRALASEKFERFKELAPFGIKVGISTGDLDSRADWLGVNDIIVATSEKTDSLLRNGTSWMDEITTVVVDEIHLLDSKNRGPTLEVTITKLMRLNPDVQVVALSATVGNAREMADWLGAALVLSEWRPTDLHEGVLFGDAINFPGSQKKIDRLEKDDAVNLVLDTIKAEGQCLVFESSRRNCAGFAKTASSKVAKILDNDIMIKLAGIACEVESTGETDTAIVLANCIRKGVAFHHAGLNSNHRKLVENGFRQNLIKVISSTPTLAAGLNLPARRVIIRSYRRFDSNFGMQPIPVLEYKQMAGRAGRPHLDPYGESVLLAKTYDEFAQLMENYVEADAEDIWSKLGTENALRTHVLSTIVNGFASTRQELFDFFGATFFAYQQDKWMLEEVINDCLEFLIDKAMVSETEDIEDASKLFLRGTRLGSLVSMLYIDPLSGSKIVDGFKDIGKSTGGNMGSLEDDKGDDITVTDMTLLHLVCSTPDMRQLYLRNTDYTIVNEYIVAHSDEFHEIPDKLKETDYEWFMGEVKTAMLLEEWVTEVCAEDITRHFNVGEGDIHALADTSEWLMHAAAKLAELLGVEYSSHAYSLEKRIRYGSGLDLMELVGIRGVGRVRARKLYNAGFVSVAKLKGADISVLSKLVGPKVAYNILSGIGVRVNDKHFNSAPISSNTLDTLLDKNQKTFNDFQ
Described as above. As to conditions: tags: C284 and C615 crosslinked by bismaleimidePEG11 (closed); 3' ssDNA overhang, 80 and 33 bp duplex sections.
Text: as §1

Consider 3.6 kb DNA, for which the figures for the activity (% movements reaching polyT) in data set [1] and in data set [2] were 71 and 28, respectively.

B1: 80 bp blocker processivity substrate (dsDNA)
DNA 1: TCGCTGCTCCACAGGTCTCAGCTTGAGCAGCGAAAATAAGAACATTATGATCAGTAGGAGCACTACGACCTTTGTTCTGGTGCTCGTCCGGGCGCCCAAAGTGGAGCGAGTGCCCCC
DNA 2: GCACTCGCTCCACTTTGGGCGCCCGGACGAGCACCAGAACAAAGGTCGTAGTGCTCCTACTGATCATAATGTTCTTATTT
DNA 3: TCGCTGCTCAAGCTGAGACCTGTGGAGCAGCGA
As for B1, the binding result in data set [3] and in data set [4] was “binds” in each case.
